US20050251879A1 (published 2005)
Positions count from the first letter of the chain named.

B1: NtCPIP2a Δ94N, Gal4 activation domain fusion (other)
chain: RFNTRDAEAIFAEFFGGSGSNSGAGVGRKAAPVENKLPCSLEELYKGSRRKMKISRILLDDSGKPTTVEEVLAIHIKPGWKKGTKITFPEKGNYEPGATPGDLIFVIDEKPHAVFKRDGNDLEINQKISLLDALTGKTISLITLDGRELTIPITDIVKPGHEHIIPNEGMPISKERGKKGNLKIKFDIKFPSRLSADQKSDIRRVLCRSAD
B2: NtCPIP1 (DnaJ-like protein from Nicotiana tabacum) fused with the Gal4 activation domain (other)
chain: MGVDYYKILKVSRNASEEDLKKSYKRLAMKWHPDKNSEKEAEAKFKQISEAYDVLSDPQKRQIYDIYGDEALKSGQFDPSSPMNGNGRGFKFDSRDAEDIFAEFFGGSDGYSRSPTGGTVRIRKPAPVENKLPCSLEELYKGSKRKMKISRIVLDVTGKPTTIEEVLAIHIKPGWKKGTKITFPEKGNHEPGAAPGDLIFVIDEKPHDVFKRDGNDLVINQKISLVDALSGKIINLATLDGRELTIPITDVVKPGHEQIIADEGMPISKEPGKKGNLRIKFEVKFPSRLSSDQKLDIRRVLGRTVD
notes: also called pAD-CPIP1
B3: SNF4 fused with the Gal4 activation domain (pAD-SNF4) (other)
chain: MKPTQDSQEKVSIEQQLAVESIRKFLNSKTSYDVLPVSYRLIVLDTSLLVKKSLNVLLQNSIVSAPLWDSKTSRFAGLLTTTDFINVIQYYFSNPDKFELVDKLQLDGLKDIERALGVDQLDTASIHPSRPLFEACLKMLESRSGRIPLIDQDEETHREIVVSVLTQYRILKFVALNCRETHFLKIPIGDLNIITQDNMKSCQMTTPVIDVIQMLTQGRVSSVPIIDENGYLINVYEAYDVLGLIKGGIYNDLSLSVGEALMRRSDDFEGVYTCTKNDKLSTIMDNIRKARVHRFFVVDDVGRLVGVLTLSDILKYILLGSN
B4: NtCPIP2a (DnaJ-like protein from Nicotiana tabacum), Gal4 activation domain fusion (other)
chain: MGLDYYNVLKVSRNASEEDLKRSYKRLAMKWHPDKNSQNKKEAEAKFKQISEAYDVLSDPQKRQIYDVYGDDALKSGQFASASPTSAGSNARGFRFNTRDAEAIFAEFFGGSGSNSGAGVGRKAAPVENKLPCSLEELYKGSRRKMKISRILLDDSGKPTTVEEVLAIHIKPGWKKGTKITFPEKGNYEPGATPGDLIFVIDEKPHAVFKRDGNDLEINQKISLLDALTGKTISLITLDGRELTIPITDIVKPGHEHIIPNEGMPISKERGKKGNLKIKFDIKFPSRLSADQKSDIRRVLCRSAD
B5: NtCPIP2b (DnaJ-like protein from Nicotiana tabacum), Gal4 activation domain fusion (other)
chain: B4 chain with N7D, A91G, G113D, G117A, E217V, I250V, S303N, A304S
B6: NtCPIP1 Δ115N, Gal4 activation domain fusion (other)
chain: TGGTVRIRKPAPVENKLPCSLEELYKGSKRKMKISRIVLDVTGKPTTIEEVLAIHIKPGWKKGTKITFPEKGNHEPGAAPGDLIFVIDEKPHDVFKRDGNDLVINQKISLVDALSGKIINLATLDGRELTIPITDVVKPGHEQIIADEGMPISKEPGKKGNLRIKFEVKFPSRLSSDQKLDIRRVLGRTVD
B7: NtCPIP2a Δ119N, Gal4 activation domain fusion (other)
chain: VGRKAAPVENKLPCSLEELYKGSRRKMKISRILLDDSGKPTTVEEVLAIHIKPGWKKGTKITFPEKGNYEPGATPGDLIFVIDEKPHAVFKRDGNDLEINQKISLLDALTGKTISLITLDGRELTIPITDIVKPGHEHIIPNEGMPISKERGKKGNLKIKFDIKFPSRLSADQKSDIRRVLCRSAD

What was measured:
[1] = target: T1, Potato virus Y capsid protein (PVY CP) fused with the Gal4 binding domain (Potato virus Y (N strain), UniProt P04386 1-147; P18247 2797-3063); experiment: yeast two-hybrid, lacZ reporter
T1 construct: also called pGBT9-PVY CP; PVY envelope protein

[2] = target: T2, Gal4 binding domain alone (pGBT1) (UniProt P04386 1-147); experiment: yeast two-hybrid, lacZ activity
T2 construct: Control

[3] = target: T3, SNF1 fused with the Gal4 binding domain (pBD-SNF1) (UniProt P04386 1-147; P06782 1-633); experiment: yeast two-hybrid, lacZ activity
T3 construct: Control plasmid, bought

[4] = target: Tobacco vein mottling virus capsid protein (TVMV CP), Gal4 binding domain fusion (Tobacco vein mottling virus, UniProt P04386 1-147; P09814 2759-3023); experiment: yeast two-hybrid, HIS3 and lacZ reporters
[5] = target: T1, Potato virus Y capsid protein (PVY CP) …; experiment: yeast two-hybrid, lacZ activity

Row | Binder | binding result [1] | binding result [4] | also measured
1 | B1 | no binding |  | 
2 | B2 |  | no binding | binding result [2]: no binding; binding result [3]: no binding
3 | B3 |  |  | binding result [5]: no binding
4 | B4 |  | no binding | 
5 | B5 |  | no binding | 
6 | B6 | no binding |  | 
7 | B7 | no binding |  | 
